Measured values taken from PMC10793455 (bioRxiv, 2023).

Experiments:
[1] = target: T1, F-actin (rabbit skeletal muscle actin filaments) (rabbit, UniProt P68135 1-377, methylated His73 (His73me)); assay: fluorescence polarisation
[2] = target: T1, F-actin (rabbit skeletal muscle actin …); assay: other fluorescence titration
[3] = target: T1, F-actin (rabbit skeletal muscle actin …); assay: fluorescence polarisation; remark: listed apart in the source
[4] = target: T1, F-actin (rabbit skeletal muscle actin …); assay: cryo-EM structure
[5] = target: Alexa-488 labeled F-actin (rabbit skeletal muscle actin) (rabbit, UniProt P68135 1-377); assay: single-molecule TIRF microscopy
[6] = target: T1, F-actin (rabbit skeletal muscle actin …); assay: fluorescence polarisation; remark: listed apart in the source

B1: FM-SipAC-ΔArm2 (SipA residues 425–658 labeled with fluorescein maleimide) (domain or fragment)
chain: TGETTSFDEVDGVTSKSIIGKPVQATVHGVDDNKQQSQTAEIVNVKPLASQLAGVENVKTDTLQSDTTVITGNKAGTTDNDNSQTDKTGPFSGLKFKQNSFLSTVPSVTNMHSMHFDARETFLGVIRKALEPDTSTPFPVRRAFDGLRAEILPNDTIKSAALKAQCSDIDKHPELKAKMETLKEVITHHPQKEKLAEIALQFAREAGLTRLKGETDYVLSNVLDGLIGDGSWRA
modifications: fluorescein maleimide (FM) label
- Kd [1]: 120 nM

B2: SipAC-Core (SipA residues 512–658), unlabeled (domain or fragment)
chain: TGPFSGLKFKQNSFLSTVPSVTNMHSMHFDARETFLGVIRKALEPDTSTPFPVRRAFDGLRAEILPNDTIKSAALKAQCSDIDKHPELKAKMETLKEVITHHPQKEKLAEIALQFAREAGLTRLKGETDYVLSNVLDGLIGDGSWRA
- Kd [2]: 81 nM

B3: SipAC (SipA residues 425–685), unlabeled (domain or fragment)
chain: TGETTSFDEVDGVTSKSIIGKPVQATVHGVDDNKQQSQTAEIVNVKPLASQLAGVENVKTDTLQSDTTVITGNKAGTTDNDNSQTDKTGPFSGLKFKQNSFLSTVPSVTNMHSMHFDARETFLGVIRKALEPDTSTPFPVRRAFDGLRAEILPNDTIKSAALKAQCSDIDKHPELKAKMETLKEVITHHPQKEKLAEIALQFAREAGLTRLKGETDYVLSNVLDGLIGDGSWRAGPAYESYLNKPGVDRVITTVDGLHMQR
- Kd [3]: 5 nM
- Kd [2]: 0.18 nM
- stoichiometry N [4]: 0.5 SipAC per actin subunit

B4: Alexa-647-SipAC (SipA residues 425–685 labeled with Alexa-647) (domain or fragment)
chain: TGETTSFDEVDGVTSKSIIGKPVQATVHGVDDNKQQSQTAEIVNVKPLASQLAGVENVKTDTLQSDTTVITGNKAGTTDNDNSQTDKTGPFSGLKFKQNSFLSTVPSVTNMHSMHFDARETFLGVIRKALEPDTSTPFPVRRAFDGLRAEILPNDTIKSAALKAQCSDIDKHPELKAKMETLKEVITHHPQKEKLAEIALQFAREAGLTRLKGETDYVLSNVLDGLIGDGSWRAGPAYESYLNKPGVDRVITTVDGLHMQR
modifications: Alexa-647 label
- Kd [5]: 0.1 nM

B5: FM-SipAC (SipA residues 425–685 labeled with fluorescein maleimide) (domain or fragment)
chain: TGETTSFDEVDGVTSKSIIGKPVQATVHGVDDNKQQSQTAEIVNVKPLASQLAGVENVKTDTLQSDTTVITGNKAGTTDNDNSQTDKTGPFSGLKFKQNSFLSTVPSVTNMHSMHFDARETFLGVIRKALEPDTSTPFPVRRAFDGLRAEILPNDTIKSAALKAQCSDIDKHPELKAKMETLKEVITHHPQKEKLAEIALQFAREAGLTRLKGETDYVLSNVLDGLIGDGSWRAGPAYESYLNKPGVDRVITTVDGLHMQR
modifications: fluorescein maleimide (FM) label
- Kd [6]: ~0.9 nM
